Assay results: US20020137684A1, “Ligand for enhancing oral and CNS delivery of biological agents” (priority 2000, published 2002)
Where no end group is shown, it is not given here. [ ]: non-standard residue; d: D form. TAMRA = carboxytetramethylrodamine

Columns and labels:
Caco-2 monolayers [1] = test: Transport of peptides across Caco-2 monolayers (Transwell, fluorescence); assay type: in vitro ADME, human; details: 50 micromol/L apical
Procedure: The desired numbers of Transwell (6.5mm diameter, 0.4 μm pore size) were placed in the wells of the tissue culture plates. The filters were wetted with medium (0.1 ml to the apical and 0.6 ml to the basolateral sides of Transwell) for 30 min in the CO2 incubator before the harvest of the cells from the flasks. The cells were re-suspended in the medium 5×10^5 cells/ml and 0.2 ml of cell suspension medium was added to the apical side of the Transwell and cultured in the CO2 incubator. The medium was changed every second day for 8-12 days to obtain well-differentiated monolayers suitable for transport experiences.
The medium in apical chamber was gently removed. […] The inserts were transferred to the new chamber. […] Peptide SEQ. ID. NO.: 2, or SEQ. ID.
The concentration of peptide in sample was determined by the fluorescence of the sample using excitation 530 nm, emission 590 nm. The concentration of dextran in samples was determined by the fluorescence of the sample using excitation 480 nm, emission 530 nm.

CACO 2 cells = test: Digestion of peptide in apical chamber of Caco-2 cells (HPLC); assay type: in vitro ADME, human
Procedure: Digestion of peptide SEQ. ID. NO.:2 in apical chamber was determined using HPLC. The samples were diluted 100 times with the media, and 0.200 mL of each was injected on a column RP-HPLC column Vydac 218TP54, pre equilibrated 15 minutes with 5 acetonitroile/water (10 mM phosphoric acid) at flow rate 1 mL per minute. Sample was eluted with two component gradient 1% per minute of acetonitrole (10 mM phosphoric acid)/water (10 mM phosphoric acid) at flow rate 1 mL per minute. Fluorescent detection was used with excitation wavelength 555 nm and emission wavelength 580 nm. The peptide SEQ. ID. NO.: 2 was eluted as sharp peak at 22.3 min. The percentage of remaining peptide was calculated as: […]
where A—area under the peak at 22.3 min, SUM(Ai)—the sum of area of all peaks eluted between 13 and 26 minutes.

Caco-2 monolayers [2] = test: Transport of peroxidase conjugate across Caco-2 monolayers; details: 25 µg/ml apical, peroxidase activity
Procedure: A two-chamber Caco-2 model was used to evaluate the transport of a conjugate comprising peroxidase and a peptide comprising an amino acid sequence of SEQ. ID. NO.:1 across the intestinal barrier (IB) in vitro. […] The medium containing isotope-labeled compound, the SEQ. ID. NO.:1-Peroxidase conjugate ([…]) or Control Peroxidase conjugate ([…]) was added to the apical side of cultured Caco-2 monolayers.

Caco-2 monolayers [3] = test: Inhibition of phage transport across Caco-2 monolayers by SEQ. ID. NO.:1-Peroxidase conjugate; details: 50 μg/ml conjugate, 3 hours
Procedure: The cell monolayers on the insert filter apically and basolaterally were rinsed twice on each side with PBS and pre-incubated with pre-warmed D-MEM for 30 min. The medium in apical chamber was gently removed. […] The inserts were transferred to the new chamber. ^3H-Manitol was used as a probe to monitor Caco-2 monolayer leakiness. The medium containing isotope-labeled compound, a phage that expresses a peptide comprising an amino acid sequence of SEQ. […] NO.:4 (5×10^9 cfu/ml) or wild-type phage (Control phage 1.5×10^9 cfu/ml) in the presence and absence of 50 μg/ml of SEQ. […] NO.:1-Peroxidase conjugate was added to the apical side. After 3 hours incubation, the media from apical and basolateral sides of the chamber was collected and used to determine the phage and ^3H-manitol transport across Caco-2 monolayers. The relative transport of compounds in % through Caco-2 was calculated as:
where Cb is a concentration of compound in basolateral chamber, Ca is a concentration of compound in the apical chamber, Vb is a volume of media in basolateral chamber and Va is a volume of media in the apical chamber. The transport of phage that expresses a peptide comprising an amino acid sequence of SEQ. […] NO.:4, or peptide SEQ. […] NO.:1-Peroxidase conjugate was detected.

Substance | Transport [%] (Caco-2 monolayers [1]; 0.5 h) | Transport [%] (Caco-2 monolayers [1]; 1.0 h) | Transport [%] (Caco-2 monolayers [1]; 2.0 h) | Transport [%] (Caco-2 monolayers [1]; […]) | Remaining peptide [%] (CACO 2 cells; 0.5 h incubation with CACO 2 cells) | Remaining peptide [%] (CACO 2 cells; 1 h incubation with CACO 2 cells) | Remaining peptide [%] (CACO 2 cells; 2 h incubation with CACO 2 cells) | Transport through Caco-2 monolayers, P, % (Caco-2 monolayers [2]; 2 hours) [%] | Transport through Caco-2 monolayers, P, % (Caco-2 monolayers [2]; 4 hours) [%] | inhibition of transport of SEQ. ID. NO.:4 phage across Caco-2 monolayers (Caco-2 monolayers [3])
tamra-D-Ala-D-Ser-D-Ala-D-Arg-D-Val-D-Leu-D-Asp-D-Gly-D-Asp-D-Arg-D-Thr-D-Arg-D-Trp-D-Gly-NH2 ({TAMRA}-[dA][dS][dA][dR][dV][dL][dD]G[dD][dR][dT][dR][dW]G-NH2) [SEQ. ID. NO. 3] | 0.06 | 0.43 | 1.03 | 0.30 |  |  |  |  |  | 
tamra-Ala-Ser-Ala-Arg-Val-Leu-Asp-Gly-Asp-Arg-Thr-Arg-Trp-Gly-NH2 ({TAMRA}-ASARVLDGDRTRWG-NH2) [SEQ. ID. NO.: 2] | 0.22 | 0.16 | 1.23 | 0.71 | 86 | 84 | 63 |  |  | 
SEQ. ID. NO.:1-Peroxidase Conjugate (Ac-CRVLDGDRTRWG; also: peroxidase conjugate) |  |  |  |  |  |  |  | 0.35 ± 0.014 | 0.705 ± 0.09 | completely inhibited
dextran [reference compound] | 0.05 | 0.16 | 0.63 | 0.38 |  |  |  |  |  | 
